Test results taken from patent US20140302039A1 (SAMSUNG ELECTRONICS, published 2014).

T1: hAng-1 (human, UniProt Q15389 20-498, limits assumed)
T1 construct: Used in 'the same experiment' as hAng-2 C-His in SPR
T1 sequence (looked up): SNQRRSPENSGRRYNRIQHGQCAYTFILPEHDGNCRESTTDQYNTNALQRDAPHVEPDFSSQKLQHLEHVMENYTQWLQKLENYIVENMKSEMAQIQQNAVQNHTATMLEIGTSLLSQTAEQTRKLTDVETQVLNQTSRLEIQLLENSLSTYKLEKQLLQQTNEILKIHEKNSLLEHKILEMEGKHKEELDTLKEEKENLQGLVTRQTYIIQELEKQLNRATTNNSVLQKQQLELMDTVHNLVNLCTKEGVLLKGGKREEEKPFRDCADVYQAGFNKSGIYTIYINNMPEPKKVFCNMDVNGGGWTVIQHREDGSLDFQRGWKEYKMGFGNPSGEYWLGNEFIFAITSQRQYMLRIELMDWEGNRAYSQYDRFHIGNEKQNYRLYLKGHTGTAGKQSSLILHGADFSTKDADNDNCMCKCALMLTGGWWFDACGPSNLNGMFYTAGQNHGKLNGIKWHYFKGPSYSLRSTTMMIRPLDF


Target: T1, hAng-1
Assay: SPR, BIAcore T100, antigen captured on chip, antibody from 100 nM in two-fold dilutions
Protocol: An anti-His antibody was immobilized to the degree of 8,000 response units (RU) on a CM5 sensor chip (GE Healthcare) using a pH 5.0 acetate solution and an amine coupling kit (GE Healthcare). Recombinant hAng-2 protein (C-His, R&D Systems) was flowed into this immobilized antibody at a concentration of 6 μg/ml to capture the antibody at 100˜200 RU. In this regard, the antibodies obtained in Reference Example 2.2.2 were serially diluted by half each time starting from 100 nM before application. […] Kd values were calculated from the measurements. The same experiment was conducted with hAng-1.

| binding result | Binder |
| --- | --- |
| no binding | SAIT-ANG-2-AB-m3E2 (antibody, V domains shown, Mouse hybridoma monoclonal antibody purified on protein G) VH: EVQLQQSGAELVKPGASVKLSCTASGFNIKDPYIHWVKQRPEQGLEWIGRIDPANGNTKYDPKFQGKATITADTSSNTAYLQLSSLTSEDTAVYYCVRRWDGGGFDYWGQGTSVTVSS VL: DIQMTQTTSSLSASLGDRVTISCRASQDISNYLNWYQQKPDGTVKLLIYYTSRLHSGVPSRFSGSGSGTDYSLTITNLEQEDIATYFCQQGNTLPWTFGGGTKLEIK |
| no binding | SAIT-ANG-2-AB-m8D3 (antibody, V domains shown, Mouse hybridoma monoclonal antibody purified on protein G) VH: EVQLQQSGPELVKPGDSVKMSCKASGYTFTDYYMKWVRQSHGKSLQWVGEINPKNGDTFYNQIFKGKATLTVDKSSSTAYMQLTSLTSEDSAVYYCTRENDYDVGFFDYWGQGTSVTVSS VL: TIVMTQTPKFLLVSAGDRITITCKASQSVSNDVAWYQQKPGQSPKLLIYYASNRYPGVPDRFTGSGYGTDFTFTISTVQAEDLAVYFCQQDYTSPWTFGGGTELEIK |
| no binding | SAIT-ANG-2-AB-m1B6 (antibody, V domains shown, Mouse hybridoma monoclonal antibody purified on protein G; also called SAIT-ANG-m2-AB-1B6) VH: QIQLVQSGPELKKPGETVKISCKASGYTFTNYGMNWVKQAPGKGLKWMGWINTYTGEPTYADDFKGRFAFSLETSASTAYLQINNLKNEDTATYFCARDHDGYLMDYWGQGTSVTVSS VL: DIQMTQTTSSLSASLGDRVTISCSTSQGISNYLNWYQQKPDGTVKLLIFYTSSLHSGVPSRFSGSGSGTDYSLTISNLEPEDIATYYCQQYSKLPYTFGGGTKLEIK |
